Measured values published in the supplement of paper PMC9170038.

Legend:
[1] = test system: MS2 coat protein; test: apparent KD of MS2 coat protein, switch OFF state (with FMN for OFF switches, without FMN for ON switches); designed switch direction (-1 OFF switch, 1 ON switch): 1; higher = weaker reporter binding; conditions: FMN input: 0 or 200 uM; Eterna round: R93 (includes R88 designs)
Method in brief: (§1)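 Each design's apparent KD comes from the median of binding-curve fits to its normalised clusters. Those clusters carried RNA switches transcribed on-chip from Illumina sequencing clusters. SNAP-549-labelled MS2 coat protein was titrated onto them in twofold steps (0.7 or 1.5 nM to 3 µM; per step 0.8–1.5 h down to 10–20 min). Conditions were 100 mM Tris-HCl pH 7.5, 80 mM KCl, 4 mM MgCl2, without or with constant ligand.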

[2] = test system: MS2 coat protein; test: apparent KD of MS2 coat protein, switch ON state; designed switch direction (-1 OFF switch, 1 ON switch): 1; higher = weaker reporter binding; conditions: FMN input: 0 or 200 uM; Eterna round: R93 (includes R88 designs)
Method in brief: as §1

Sequence | apparent KD of MS2 coat protein [1] | apparent KD of MS2 coat protein [2]
GGGAGACAUGAGGAUCACCCAUGUGAGAAGAGGCGAGGAUAUCGAAAAAAAAAAAAAAAACGAGAAGGCGCGAGAU [salish99-SS1-004] | 300 nM | 74.4 nM
AAUAAACAUGAGGAUCACCCAUGUCUUUUACAUCAAGGAUAUGGGAUCGGAAAUCCGACACCAGAAGGUGAGUAGA [Userra] | 300 nM | 157 nM
AGAGAUAACAGAGAGGAUAUCCAAUAGAAAACAUGAGGAUCACCCAUGUGAAAGAUAAUAAAAUGGGAGAAGGCUCACAAUAAGA [Topaz 42] | 39.8 nM | 15.8 nM
AUAAAACAUGAGGAUCACCCAUGUAGAAAUAUGGGAGGAUAUACUAGAUCGAAAGAUCUAGUAGAAGGCCUAAAAG [JL Mod of Eli 1] | 60.7 nM | 27.6 nM
AAUCCAAAUAGUCAGGAUAUCAAAAAUAAGACAUGAGGAUCACCCAUGUACUUAGUAAAAGUAAAUGAGAAGGGACAGGGUGAAA [JR_SS002_Sub403] | 29.4 nM | 21.4 nM
GAGGACAUAGUUCAGGAUAUAUGAAUAGUCACAUGAGGAUCACCCAUGUCCAUUUAUAUGGGCACAUAGAAGGGAGGUAGUUAUC [SameState2 Malc#26] | 417 nM | 205 nM
AAAUAACAUGAGGAUCACCCAUGUUACAACAAUACAGGAUAUGUGGGUGAAAAUAGCAUGACAGAAGGGUACUGUA [SameState1 Malc#33] | 124 nM | 237 nM
AACAAUCUAUCUGAGGAUAUGAUGUCAAAGACAUGAGGAUCACCCAUGUGCAGGAAAACUGCAUAUCAGAAGGCAGAUAGAUUGA [SS2: 1103] | 18.4 nM | 15.6 nM
AAAACACAUGAGGAUCACCCAUGUAAAAACAAGGGAGGAUAUGCUUGGAAAACAUGCUAUGCAGAAGGCUCAAGUG [SS1 - 11] | 31.1 nM | 42.9 nM
CAAACAACAACACAGGAUAUACAUAUAAUAACAUGAGGAUCACCCAUGUAAGGCAAAAAUAAGCUGUAGAAGGGUGAACACACAA [Default title] | 14.1 nM | 10.6 nM
GUAGACAUAGUUCAGGAUAUAUGAAUAGUCACAUGAGGAUCACCCAUGUGCAUUUAUAUGCGCACAUAGAAGGGAGGUAGUUAAC [Mat - Same state - Malcolm Mod - D122] | 20.7 nM | 22.3 nM
AGAAAACAUGAGGAUCACCCAUGUAGGAAUAUGGGAGGAUAUACAGAGACGAAAGUCAGAGUAGAAGGCCUAAGAA [salish99-SS1-088] | 96.7 nM | 24 nM
GAAAAACAUGAGGAUCACCCAUGUAAAAAAAUGGGAGGAUAUACAAAGACGAAAGUCAAAGUAGAAGGCCUGAAAG [same state 2] | 81.8 nM | 18 nM
AGAAUAAAAAGACAGGAUAUCCAAAAUAAAACAUGAGGAUCACCCAUGUAAAAAAAAUAAAAAUGGGAGAAGGGUCAAAAUAAGA [Mat - Same State 2 - JL mod - D63] | 31.9 nM | 18.8 nM
AAAAAAAAUGUGUAGGAUAUCAGUAAAAAUACAUGAGGAUCACCCAUGUUCAAAAAAAAAAAAACUGAGAAGGACGUGGAUGGUCC [Design 3] | 11.1 nM | 12.3 nM
AAAUAAAUGACUCAGGAUAUAUCAUAGAAUACAUGAGGAUCACCCAUGUUUUAAUAACAUGUUUGGUAGAAGGGAGUCAAUAAAU [LROPPY Same State 2 - v05_deltaG=1.86] | 116 nM | 25.9 nM
AAGAAACAUGAGGAUCACCCAUGUGAGAUAAACACAGGAUAUGCGAAAAGAAACAAAGAAGCAGAAGGGUGAAGAA [Mat - Same State 1 - Tesla mod - 55] | 126 nM | 34.9 nM
AAUAAACAUGAGGAUCACCCAUGUACCGACCACUAAGGAUAUGGGCGAAUAACAGCUCGGCCAGAAGGUAGAGGUG [Gebimarabi] | 62.5 nM | 46.7 nM
AUUAAACAUGAGGAUCACCCAUGUGGCAAAAGCACAGGAUAUAGGAGUCCGAGCAGACAACUAGAAGGGUGGAAAA [Rixelexe] | 53.7 nM | 28.8 nM
ACUACACAUGAGGAUCACCCAUGUCAGGUCGGACUAGGAUAUUAUAAACCAGAGUAAAAAUAAGAAGGAGUAGAAA [JR_SS001_Sub309] | 29.9 nM | 37.9 nM
CUGGACAUAGUACAGGAUAUAUGAAUAGUCACAUGAGGAUCACCCAUGUGCAUUUAUAUGCGCACAUAGAAGGGUGGUAGUUAAG [Mat - Same state - Malcolm Mod - D140] | 57.9 nM | 180 nM
GGUCGACAUGAGGAUCACCCAUGUAAGCCAAGGCAAGGAUAUGGGUAUAGGGUGCUAGGAUUAGAAGGUGCCAAAA [Soredige] | 82.8 nM | 87.1 nM
